Source: patent US20110136738A1, “Alternatively Transcribed Genes Associated with Schizophrenia” (University College Dublin, National University of Ireland, …, priority 2008, published 2011)
“Also recorded” adds a separate entry of the source.

Test system: isolation reared animals
Assay: Prepulse inhibition of startle in isolation reared animals (ICV midkine)
Type: in vivo, male Wistar rats
Conditions: isolation reared rats, four daily ICV injections of midkine 2 μg/day, compared to vehicle-treated animals
Method: Isolation-reared animals (isolated animals) were housed singly in non-soft bottom cages (22.5 cm×34.5 cm×17 cm), from time of weaning (postnatal day 25, P25) until completion of behavioral testing. A standard 12 hour light/dark cycle was observed and food and water was provided ad libitum. Noise and visual stimuli were kept to an absolute minimum as described previously by Geyer et al., 1993. Socially reared animals (social animals) were housed in groups of 4 from time of weaning until surgical implantation of a guide cannula on P80, there after they were housed singly. […] The startle apparatus consisted of a sound attenuating chamber (54.6×50.8×30.5 cm), a startle platform which measured the startle response, and an audio stimulator, controlled by the startle reflex software (MED Associates Inc.). […] The resulting movement of the rats was measured during 100 ms after startle stimulus onset, and then rectified, amplified and analyzed by computer and the maximal response and average response over the 100 ms period determined. Baseline startle amplitude was determined as the mean response of all startle trials. The percent prepulse inhibition was determined according to the following formula: 100-([startle amplitude at prepulse trial/startle amplitude at startle trial]×100%). The effect on baseline startle amplitude was analyzed by a one-way analysis of variance (ANOVA). […]

B1: midkine (protein, UniProt P21741 21-143, looked up)
Midkine: VAKKKDKVKKGGPGSECAEWAWGPCTPSSKDCGVGFREGTCGAQTQRIRCRVPCNWKKEFGADCKYKFENWGACDGGTGTKVRQGTLKKARYNAQCQETIRVTKPCTPKTKAKAKAKKGKGKD
Question: For B1, which “prepulse inhibition (PPI) of startle” value is on record?
Answer: The value was “reverses the deficit observed in prepulse inhibition of startle; also recorded: reversed PPI behavior back to normal”.

Question: And the “prepulse inhibition (PPI) of startle” value (listed as Midkine)?
Answer: The value was “reversed the deficit observed in prepulse inhibition of startle; also recorded: reversed PPI behavior back to normal”.
